These results are taken from patent US6596504B2, “Treatment of prophylaxis of diseases caused by pilus-forming bacteria” (Washington University, priority 1993, dated 2003).

Data set [1] concerns the target T1, PapD (Escherichia coli, UniProt P15319).
T1 construct: (A) NAME/KEY: mat_; made in house; Lindberg et al. 1989
T1 sequence (P15319 22-239): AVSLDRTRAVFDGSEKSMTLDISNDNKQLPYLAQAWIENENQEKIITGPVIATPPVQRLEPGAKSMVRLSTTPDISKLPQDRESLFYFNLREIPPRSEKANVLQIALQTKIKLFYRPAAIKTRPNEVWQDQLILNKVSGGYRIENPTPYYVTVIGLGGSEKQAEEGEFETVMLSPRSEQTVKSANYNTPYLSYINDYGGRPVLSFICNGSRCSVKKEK
The data set is described as follows: Soluble inhibition ELISA: PapD binding to G1′-19′WT-coated wells. On the set-up: species or system E. coli. The following applies: 25-fold molar excess of peptide, 100 pmol/well PapD, compared to water. As for the experimental part: Microtiter wells were coated overnight at 4° C. with 50 μl of 2,5 pmol/50 μl of the G1′-19′WT peptide. The wells were washed with PBS and blocked with 3% bovine serum albumin (BSA). A 25-fold molar excess of each test peptide was pre-incubated with 100 pmoles PapD for 30 min. and the PapD-peptide solution was then added to the coated wells and incubated at 25° C. for 45 min in the presence of 3% BSA/PBS. The subsequent primary antibody, secondary antibody and developing steps are described above. The ability of the peptides to inhibit binding of PapD to the G1′-19′WT peptide was calculated by dividing the amount of PapD binding in the presence of peptide with the amount of PapD binding in the presence of water. 0% inhibition includes values where binding was greater than that of PapD pre-incubated with H2O.

In data set [2] the target is T1, PapD. The data set is described as follows: ELISA: inhibition by peptides of PapD binding to MBP-G1′-140′ fusion protein. Details: species or system E. coli. The following applies: PapD preincubated with peptide at 1:25 ratio; preliminary results. The method, then: Stock solutions of MBP-G1′-140′ proteins in PBS were diluted to 0.1 μM with PBS. The wells of microtiter plates were coated with 50 μl of the protein solutions overnight at 4° C. The wells were washed with PBS, and blocked with 200 μl of 3bovine serum albumin (BSA) in PBS for 2 hours at 25° C. The plates were washed vigorously three times with PBS and incubated with 50 μl of 1-5 μM PapD proteins in […]-PBS for 45 minutes at 25° C. The PapD was preincubated with each of the peptides at a 1:25 ratio for 30 min before being added to the wells. After three washings with PBS, the wells were incubated with a 1:500 dilution of rabbit anti-PapD antiserum in BSA-PBS for 45 minutes at 25° C. After three washings with PBS, the wells were incubated with a 1:1000 dilution of goat antiserum to rabbit IgG coupled to alkaline phosphatase in 3BSA-PBS for 45 minutes at 25° C. After three washings with PBS and three washings with developing buffer (10 mM diethanolamine, 0.5 mM MgCl2), 50 μl filtered 1 mg/ml p-nitrophenyl phosphate in developing buffer was added, the reaction was incubated for 1 hour or longer if necessary in the dark at 25° C., and the absorbance at 405 nm was read.

The target in data set [3] is T1, PapD. The data set can be described thus: ELISA: PapD binding to peptides coated on microtiter wells. On the set-up: species or system E. coli. The following applies: for binding of PapD to immobilized peptide: peptide coated on microtiter wells, ELISA with anti-PapD antiserum; for reduction of binding of PapD to the immobilized peptide: compared with G1′-19′WT peptide. As for the experimental part: FIG. 1: PapD binds to pilus subunit-related peptides coated in ELISA microtiter plates and in solution. A and B: The peptides from Table 1 were coated on microtiter wells and tested for their ability to bind to PapD in an ELISA assay described in example 2. Water insoluble peptides were dissolved in 2.5% acetic acid (AA) which had no effect on the binding of G1′-19′WT to PapD in this assay. Each group represents the average of duplicate wells.
5 mg/ml stock solutions of peptides in water or 50% acetic acid were diluted to a concentration of 2.5 pmol/50 μl in PBS. 50 μl of the peptide solution was coated overnight onto microtiter wells (Nunc-Immuno Plate Maxisorp) at 4° C. The solutions in the plates were discarded, and the wells were blocked with 200 μl 3% bovine serum albumin (BSA, Sigma) in PBS (120 mM NaCl/2.7 mM KCl/10 mM phosphate buffer salts, pH 7.4) for 2 hours at 25° C. The plates were washed vigorously 3 times with PBS and incubated with 50 μl of the indicated amount of purified PapD (Lindberg et al, 1989). After 3 washes with PBS, the wells were incubated with a 1:500 dilution of anti-PapD rabbit antiserum (Lindberg et al, 1989) in 3% BSA/PBS for 45 min. at 25° C. After 3 washes with PBS, the wells were incubated with a 1:1000 dilution of goat anti-rabbit IgG coupled to alkaline phosphatase (Sigma) in 3% BSA/PBS for 45 min. at 25° C. Following 3 washes with PBS and 3 washes with developing buffer (10 mM diethanolamine pH 9.5, 0,5 MM MgCl2), 50 μl filtered p-nitrophenyl phosphate substrate (Sigma) in developing buffer (10 mg/ml) was added. The absorbance at 405 nm was read after 60 min of incubation in the dark at 25° C.

The nature of data set [4]: Water solubility of peptides. It counts as physicochemical.
A further data set concerns the target T2, PapD-PapG complex (Escherichia coli, UniProt P15319).
T2 construct: (A) NAME/KEY: mat_; made in house
T2 sequence (P15319 22-239): T1 sequence (P15319 22-239)
The data set is described as follows: Reconstitution assay: restoration of PapD-PapG complex from reduced, denatured PapD-PapG. It counts as binding, E. coli. As to conditions: PapD preincubated with peptide. The method, then:
B: PapD incubated with the G1′-19′WT, G1′-16′WT, K1′-19′WT, and G2′-21′amide was added to reduced, denatured PapD-PapG and the amount of PapD-PapG complex restored in each sample was quantitated as described in example 2. The % inhibition represents the amount of the PapD-PapG complex restored with peptide-treated PapD compared to the amount of PapD-PapG complex restored with untreated PapD. The graph represent the average of 4 experiments. PapD and PapD-PapG complex were prepared as described in F. Lindberg et al, J. Bacteriol. 171, 6052 (1989) and S. J. Hultgren et al., Proc. Natl. Acad. Sci. USA 86, 4357 (1989).
FIG. 7: Ability of PapD Arg-8, Lys-112 and Thr-7 mutants to bind PapG and restore the PapD-PapG complex in vitro. 0.4 μg of PapD-PapG complex was reduced and denatured as described in FIG. 2B. The denatured PapD-PapG complex was then diluted with 0-630 ng purified wild type (WT) or mutant PapD. The amount of PapD-PapG restored in the samples was determined as in FIG. 2B and was graphed as a percentage of the greatest amount of PapD-PapG restored. The values graphed represent the average of 3 experiments. Wild type and mutant PapD and the PapD-PapG complex were purified as described in F. Lindberg et al, J. Bacteriol. 171, 6052 (1989) and S. J. Hultgren et al., Proc. Natl. Acad. Sci. USA 86, 4357 (1989).
The PapD-peptide solution was then added to the reduced, denatured PapD-PapG, incubated at 25° C. for 10 min, and applied to an IEF 3-9 gel (Pharmacia). The amount of PapD-PapG restored in each sample was quantitated by densitometry of the silver stained IEF band corresponding to the pI of the DG complex.

Data set [5] has as its target T1, PapD. The data set is described as follows: Protection of PapD against trypsin cleavage by peptides. The data set is classed as biochemical, E. coli. The following applies: preincubation with 20-fold molar excess of peptide. The method, then:
A Lower: The rate of trypsin cleavage of PapD decreased upon preincubation with the G1′-19′WT, G1′-16′WT or K1′-19′WT peptides, but the G2′-21′amide peptide had no effect. 50 μg of purified PapD was preincubated for 15 min at 25° C. with a 20-fold molar excess of G1′-19′WT, G1′-16′WT, K1′-19′WT or G2′-21′amide peptides (any trypsin cleavage sites in these peptides occur at their amino termini where they were predicted not to interfere with PapD), or an equivalent volume of water. Each sample was then incubated at 37° C. with 3.2 μg of trypsin. Aliquots were removed after 0, 5, 10, 20, 30 and 40 min and boiled in SDS-PAGE sample buffer to stop the digestion. The samples were applied to 15% SDS-PAGE gels and the amount of full-length PapD remaining was determined by densitometry of Coomassie blue stained bands corresponding to full-length PapD which are shown.
400 μg of PapD was partially digested by incubation with either 4,5μg trypsin or 0.45 μg chymotrypsin on PBS for 20 min. at 37° C. The PapD digests were applied to a C-18 HPLC column (Beckman) and 2 major fragments were eluted with a 0-100% acetonitrile gradient in 0.01% trifluoroacetic acid. The PapD fragments were identified by their molecular weight on SDS-PAGE and amino-terminal sequencing. The N-terminal amino acid sequences of the approximately 14 kDa tryptic and chymotryptic fragments were identified as residues 100-108 and 104-109 of PapD, respectively, corresponding to cleavage after Lys-99 (for trypsin) and Leu-103 (for chymotrypsin). The N-terminal sequences of the 11 and 12 kDa bands in the digests were identical to the N-terminal sequence of PapD.

Entries after “also recorded” stand apart in the source; their conditions may differ.

For “G1′-4′: 4 C-terminal amino acid residues of PapG (numbering of b394) (LSFP)”, in the data set with PapD [1], the “% Inhibition” value is 0%.

“G1′-6′: length series of peptides from the C-terminus of PapG, 6 residues (MVLSFP)”: the “inhibitory power on binding of PapD to MBP-G1′-140′” value (“inhibitory power on binding of PapD” below) with PapD [2] is given as “less active inhibitory peptides”.

“G1′-8′: octameric peptide from the C-terminus of PapG (MTMVLSFP)”: in the data set with PapD [2], the “inhibitory power on binding of PapD” value is reported as “significantly higher inhibitive effect; also recorded: significantly more potent”.

For the substance “H-QNLIAGPFSATATLVASYS-OH [E1′-19′WT, NH2-QNLIAGPFSATATLVASYS-COOH]”, the “binding of PapD to immobilized peptide” value on PapD [3] was “moderately”.

Regarding “H-SGSMTMVLSFP-OH [G1′-11′WT, NH2-SGSMTMVLSFP-COOH]”, the “inhibitory power on binding of PapD” value on PapD [2] was “significantly more potent”. Besides, the “binding of PapD to immobilized peptide” value at PapD [3] is reported as “binds”.

For “H-TMVLSFP-OH [G1′-7′WT, NH2-TMVLSFP-COOH]”, on PapD [2], the “inhibitory power on binding of PapD” value was “less active inhibitory peptides”. Moreover, the “binding of PapD to immobilized peptide” value on PapD [3] is on record as “does not bind”. In addition, the solubility result in data set [4] is “limited solubility”.

Consider “NH2-EEGKRKPGELSGSMTMVLSF-CONH2 (H-EEGKRKPGELSGSMTMVLSF-NH2) [G2′-21′amide]”, for which the “inhibition of restoration of the PapD-PapG complex by PapD” value (“inhibition of restoration … by PapD” for short) in the data set with PapD-PapG complex is listed as “has no effect”. In addition, in the data set with PapD [1], the “% Inhibition” value is on record as 0%. In the data set with PapD [3], the “reduction of binding of PapD to the immobilized peptide” value is given as “approximately 75%” and the “binding of PapD to immobilized peptide” value is “reduced binding of PapD”. Moreover, in the data set with PapD [5], the “rate of trypsin cleavage of PapD” value was “had no effect and not”.

Regarding “NH2-GILNGGDFQTTASMAMIYN-COOH (H-GILNGGDFQTTASMAMIYN-OH) [F1′-19′WT]”, the “binding of PapD to immobilized peptide” value in the data set with PapD [3] was “moderately”.

Consider “NH2-GKRKPGELSGSMTMVLSFP-CONH2 (H-GKRKPGELSGSMTMVLSFP-NH2) [G1′-19′ amide]”, for which, in the data set with PapD [3], the “binding of PapD to immobilized peptide” value is “did not affect binding to PapD”.

For “NH2-GKRKPGELSGSMTMVLSFP-COOH (H-GKRKPGELSGSMTMVLSFP-OH) [G1′-19′WT]”, the “inhibition of restoration … by PapD” value with PapD-PapG complex is given as “inhibit restoration of the PapD-PapG complex”. Moreover, the “binding of PapD to immobilized peptide” value with PapD [3] is given as “bound well”. The “rate of trypsin cleavage of PapD” value with PapD [5] is recorded as “decreased; also recorded: reduced the rate of tryptic cleavage of PapD”.

As to “NH2-GKRKPVELSGSMTMVLSSP-COOH (H-GKRKPVELSGSMTMVLSSP-OH) [G1′-19′SV]”, the “reduction of binding of PapD to the immobilized peptide” value in the data set with PapD [3] is reported as 36%.

Consider “NH2-KKLEAGNYFAVLGFRVDYE-COOH (H-KKLEAGNYFAVLGFRVDYE-OH) [H1′-19′ WT]”, for which, in the data set with PapD [3], the “binding of PapD to immobilized peptide” value is reported as “no binding”.

For the substance “NH2-KPGELSGSMTMVLSFP-COOH (H-KPGELSGSMTMVLSFP-OH) [G1′-16′WT]”, the “inhibition of restoration … by PapD” value with PapD-PapG complex is given as “inhibit restoration of the PapD-PapG complex”. Moreover, the “inhibitory power on binding of PapD” value with PapD [2] was “significantly more potent”. Also, the “binding of PapD to immobilized peptide” value with PapD [3] is listed as “binds”. Further, the “rate of trypsin cleavage of PapD” value with PapD [5] was “decreased; also recorded: reduced the rate of tryptic cleavage of PapD”.

Consider “NH2-KSVVPGDYEATATFELTYR-COOH (H-KSVVPGDYEATATFELTYR-OH) [K1′-19′WT]”, for which the “inhibition of restoration … by PapD” value in the data set with PapD-PapG complex is “inhibit restoration of the PapD-PapG complex”. Further, the “binding of PapD to immobilized peptide” value is “tight binding” with PapD [3] and “moderately” with PapD [3] (listed as PapK). Also, in the data set with PapD [5], the “rate of trypsin cleavage of PapD” value is reported as “decreased; also recorded: reduced the rate of tryptic cleavage of PapD”.

As for “NH2-YALAPNAVIPTSLALL-COOH (H-YALAPNAVIPTSLALL-OH) [MS, random hydrophobic peptide, reference compound]”, in the data set with PapD [1], the “% Inhibition” value worked out at 1%. For the same substance, the “binding of PapD to immobilized peptide” value with PapD [3] was “no binding”.
